The source of these data is patent publication US6420345 (dated 2002).

B1: human p16 (other)
chain: MEPAAGSSMEPSADWLATAAARGRVEEVRALLEAGALPNAPNSYGRRPIQVMMMGSARVAELLLLHGAEPNCADPATLTRPVHDAAREGFLDTLVVLHRAGARLDVRDAWGRLPVDLAEELGHRDVARYLRAAAGGTRGSNHARIDAAEGPSDIPD
B2: W10 (other)
chain: MGYPYDVPDYAKPSACRNLFGPVDHEELTRDLEKHCRDMEEASQRKWNFDFQNHKPLEGKYEWQEVEKGSLPEFYYRPPRGGGGSGGGGSGGGGSVEDPAAGSSMEPSADWLATAAARGRVEEVRALLEAGALPNAPNSYGRRPIQVMMMGSARVAELLLLHGAEPNCADPATLTRPVHDAAREGFLDTLVVLHRAGARLDVRDAWGRLPVDLAEELGHRDVARYLRAAAGGTRGSNHARIDAAEGPSDIPD
B3: W9 (other)
chain: MGYPYDVPDYAKPSACRNLFGPVDHEELTRDLEKHCRDMEEASQRKWNFDFQNHKPLEGKYEWQEVEKGSLPEFYYRPPRVEDPAAGSSMEPSADWLATAAARGRVEEVRALLEAGALPNAPNSYGRRPIQVMMMGSARVAELLLLHGAEPNCADPATLTRPVHDAAREGFLDTLVVLHRAGARLDVRDAWGRLPVDLAEELGHRDVARYLRAAAGGTRGSNHARIDAAEGPSDIPD

Usually IC50 stands for the concentration at which inhibition is half-maximal. A high value points to weaker potency.

CDK4/cyclin D1 complex, sequence (P11802 whole entry, chain 1 of 2): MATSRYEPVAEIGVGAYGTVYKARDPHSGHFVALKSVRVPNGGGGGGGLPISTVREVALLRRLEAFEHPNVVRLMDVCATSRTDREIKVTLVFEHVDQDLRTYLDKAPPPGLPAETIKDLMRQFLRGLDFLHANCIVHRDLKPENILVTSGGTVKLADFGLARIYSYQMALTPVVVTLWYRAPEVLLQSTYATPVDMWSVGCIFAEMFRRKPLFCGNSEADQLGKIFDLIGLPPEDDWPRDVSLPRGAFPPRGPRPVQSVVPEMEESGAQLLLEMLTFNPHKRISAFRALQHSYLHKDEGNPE
CDK4/cyclin D1 complex, sequence (P24385 whole entry, chain 2 of 2): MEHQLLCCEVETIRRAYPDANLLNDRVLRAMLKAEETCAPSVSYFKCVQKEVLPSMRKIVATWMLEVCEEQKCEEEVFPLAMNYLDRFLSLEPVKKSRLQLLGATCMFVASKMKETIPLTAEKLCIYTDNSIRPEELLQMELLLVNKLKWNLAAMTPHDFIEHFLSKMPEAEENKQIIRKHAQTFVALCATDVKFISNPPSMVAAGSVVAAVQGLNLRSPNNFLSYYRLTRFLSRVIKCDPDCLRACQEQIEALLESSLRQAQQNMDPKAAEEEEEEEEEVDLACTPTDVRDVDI
CDC2/cyclin B complex, sequence (P06493 whole entry, chain 1 of 2): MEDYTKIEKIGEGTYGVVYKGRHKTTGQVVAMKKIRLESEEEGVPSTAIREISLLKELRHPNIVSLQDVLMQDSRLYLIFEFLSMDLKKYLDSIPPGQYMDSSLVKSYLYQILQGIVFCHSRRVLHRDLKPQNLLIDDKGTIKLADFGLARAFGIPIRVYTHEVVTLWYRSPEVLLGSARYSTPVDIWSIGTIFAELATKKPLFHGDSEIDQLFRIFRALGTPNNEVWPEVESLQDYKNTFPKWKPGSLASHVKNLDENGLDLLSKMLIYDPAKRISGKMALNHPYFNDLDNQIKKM
CDC2/cyclin B complex, sequence (P14635 whole entry, chain 2 of 2): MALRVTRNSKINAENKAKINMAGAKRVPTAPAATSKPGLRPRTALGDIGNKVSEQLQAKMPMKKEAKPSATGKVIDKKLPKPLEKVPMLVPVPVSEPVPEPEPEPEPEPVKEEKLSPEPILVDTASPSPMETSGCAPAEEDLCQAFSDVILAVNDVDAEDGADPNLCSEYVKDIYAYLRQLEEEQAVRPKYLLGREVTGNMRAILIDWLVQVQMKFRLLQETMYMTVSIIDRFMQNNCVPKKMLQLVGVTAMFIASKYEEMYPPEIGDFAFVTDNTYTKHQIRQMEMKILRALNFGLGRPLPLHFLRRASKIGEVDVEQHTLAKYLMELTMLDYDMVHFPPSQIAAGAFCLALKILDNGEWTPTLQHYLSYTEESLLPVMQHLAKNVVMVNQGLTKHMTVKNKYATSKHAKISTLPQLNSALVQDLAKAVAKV

The first assay concerns the target CDC2/cyclin B complex (UniProt P06493 1-297; P14635 1-433). Briefly: in vitro kinase assay.
For B1, the IC50 was > 1000 nM.

Take B2: the IC50 came to 17 nM. In other words, the double-digit nanomolar range.

The molecule B3 showed an IC50 of 18 nM.

The next assay addresses CDK4/cyclin D1 complex (UniProt P11802 1-303; P24385 1-295). Briefly: in vitro kinase assay.
Regarding B1, the IC50 came to 100 nM.

B2 registered an IC50 of 38 nM.

For the molecule B3, the midpoint of inhibition, the IC50, lay at 47 nM.

The target of another assay is CDK2/cyclin E complex (UniProt P24941 1-298; P24864 16-410). Briefly: in vitro kinase assay.
Regarding B1, the IC50 was > 1000 nM.

Consider B2, for which the IC50 was found to be 3 nM.

B3 showed an IC50 of 3.5 nM.
